Measurements taken from the supplement of paper PMC10567573.

Test: protein stability index of a GFP-peptide fusion (GPS, HEK-293T) (PSI 1-6); higher = more stable
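Also: lentivirally expressed fusions sorted by FACS into six bins by GFP to DsRed ratio, PSI derived from sequencing read proportions per bin multiplied by bin number.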

LVVFTASMEIYGSAVADKLDNSRS [DULLARD WT]
protein stability index (parent: IOH12711_22, c terminus: a fixed tail appended): 2.76

QCIECGKSFNRHCNLIRHQKIHTV
protein stability index (parent: IOH12838_62, c terminus: a fixed tail appended): 3.73

YPEDSSWAAKAPGASSREEPPEEP
protein stability index (parent: IOH12673_12, c terminus: a fixed tail appended): 4.25

KYMPHLCQDSSGEVSCQCQLHPPR [MGC27345 WT]
protein stability index (parent: IOH12124_9, c terminus: a fixed tail appended): 2

PAVDLNQVLNETRNQYEALVETNR
protein stability index (parent: IOH13096_37, c terminus: a fixed tail appended): 3.33

ILREELQKQRLREILEQQQQERND [ZNF277 WT]
protein stability index (parent: IOH12086_23, c terminus: a fixed tail appended): 4.26

AAPFRFVARPVRFPREHQFFEDGD
protein stability index (parent: IOH11805_6, c terminus: a fixed tail appended): 2.1

VCCCELGVNPDQVEKIRKLPNTLL
protein stability index (parent: IOH13159_50, c terminus: a fixed tail appended): 1.91

YEHHYHTLHGNVCSFCKRAFPSGH
protein stability index (parent: IOH11805_17, c terminus: a fixed tail appended): 2.07

FLPGGDMMTLLMKKDTLTEEETQF
protein stability index (parent: IOH11742_29, c terminus: a fixed tail appended): 2.21

SSKSRAAPSPQEALVRLRETEEML
protein stability index (parent: IOH12461_3, c terminus: a fixed tail appended): 1.94

YGETDFHKQDGKAGLFSQEQYERN [TMEM40 WT]
protein stability index (parent: IOH12831_5, c terminus: a fixed tail appended): 4.04

LWKMKPRRNLEEDDYLHKDTGETS
protein stability index (parent: IOH13052_3, c terminus: a fixed tail appended): 4.46

VRIQNPSLRENDFIEIELDRQELT
protein stability index (parent: IOH13159_45, c terminus: a fixed tail appended): 2.38

RQLAYSTVGTPDYIAPEVFMQTGY
protein stability index (parent: IOH11742_47, c terminus: a fixed tail appended): 2.48

FHEVGTEMIITKAGRRMFPSYKVK
protein stability index (parent: IOH11603_12, c terminus: a fixed tail appended): 2.15

MTVEKEAPDAHFTVDKQNISLWPR [CD207 WT]
protein stability index (parent: IOH12930_1, c terminus: a fixed tail appended): 3.23

SLRENDFIEIELDRQELTYQELLR
protein stability index (parent: IOH13159_46, c terminus: a fixed tail appended): 2.87

LTEAEGWHFFCFQGEATRKLAGK
protein stability index (parent: IOH12374_27, c terminus: native): 2.13

VVLKLFLSFSGSDVQNKLKESAQC
protein stability index (parent: IOH13259_29, c terminus: a fixed tail appended): 2.49

AEVSWEPGRREGCDICAGKAGCPI [RPS21 WT]
protein stability index (parent: IOH11779_7, c terminus: a fixed tail appended): 3.06

FPESETKECPFRVNKVCGAACSSK [SERPINB5 WT]
protein stability index (parent: IOH12329_30, c terminus: a fixed tail appended): 2.39

LLEDMRASEAFHWDERGRAAAYSP
protein stability index (parent: IOH11833_9, c terminus: a fixed tail appended): 1.79

SGLVRRLWRSRVVPDREEGGSGGG [SMAD6 WT]
protein stability index (parent: IOH13078_2, c terminus: a fixed tail appended): 4.12

RMVPALPPKRMLGADREFIEARRR
protein stability index (parent: IOH13259_22, c terminus: a fixed tail appended): 3.67

YQNHKITQLKIENNPFAKGFRGSD
protein stability index (parent: IOH11603_37, c terminus: a fixed tail appended): 2.57

EENMERIGEEVRQLMEKLREKQLS
protein stability index (parent: IOH13216_14, c terminus: a fixed tail appended): 4.44

NIPFFPDLQITDQVALLRLTWSEL
protein stability index (parent: IOH12813_39, c terminus: a fixed tail appended): 2.29

FCIDSENRIGNSGVEEIKGHPFFE
protein stability index (parent: IOH11742_61, c terminus: a fixed tail appended): 2.18

LHQETQLIHVYLPLTSHILRAFVN
protein stability index (parent: IOH13259_67, c terminus: a fixed tail appended): 2.4

FWNFKQMWDSKKIGLRQHHCRKCG [WDFY2 WT]
protein stability index (parent: IOH13317_50, c terminus: a fixed tail appended): 2

HLYPADFRFDKPKKSRSPASAEAP
protein stability index (parent: IOH11805_29, c terminus: a fixed tail appended): 2.92

QKRYHCKECGKVFSQSAGLIQHQR
protein stability index (parent: IOH12838_52, c terminus: a fixed tail appended): 3.14

TNIRLPNVPSSSLPAQPNRKPGMS
protein stability index (parent: IOH12461_31, c terminus: a fixed tail appended): 4.51

YQSYFKTIEELQQKILCSKSENAR
protein stability index (parent: IOH13096_18, c terminus: a fixed tail appended): 1.93

TLAALLLNRSESDIRYLLGYVSQQ [FEM1B WT]
protein stability index (parent: IOH13134_4, c terminus: a fixed tail appended): 2.44

FQELAGKELCAMSEEQFRQRSPLG
protein stability index (parent: IOH12673_30, c terminus: a fixed tail appended): 2.63

CVQCKMPVCYQCLEEGKHSSHEVK
protein stability index (parent: IOH12704_41, c terminus: a fixed tail appended): 3.89

FDALDDYEHHYHTLHGNVCSFCKR
protein stability index (parent: IOH11805_16, c terminus: a fixed tail appended): 3.55

GYGIYYFIYSTWKGRTIYLEDIYV
protein stability index (parent: IOH12374_13, c terminus: a fixed tail appended): 3

VAHVESLQEKSQCALEEYVRSQYP
protein stability index (parent: IOH12813_56, c terminus: a fixed tail appended): 3.61

YQELLRVCCCELGVNPDQVEKIRK
protein stability index (parent: IOH13159_49, c terminus: a fixed tail appended): 2.07

PRNSCITCPQCHRSLILDDRGLRG
protein stability index (parent: IOH12704_21, c terminus: a fixed tail appended): 2.06

VGAAGSARQELLGDRPRWQRLLGE
protein stability index (parent: IOH11833_41, c terminus: a fixed tail appended): 3.32

FAPLLDEQYDLATKRVRQLLDLDP [GOLPH3 WT]
protein stability index (parent: IOH12568_43, c terminus: a fixed tail appended): 2.12

WMLTRKQFGLLSFFFAVLHAIYSL
protein stability index (parent: IOH13052_27, c terminus: a fixed tail appended): 1.71

DLKDDGNMMKVLRGHQNWVYSCAF
protein stability index (parent: IOH12660_34, c terminus: a fixed tail appended): 2

FSHDGLHVASLADDKMVRFWRIDE
protein stability index (parent: IOH12660_54, c terminus: a fixed tail appended): 1.85

IIKKVAEVALDKGCSQFRLAVLDW
protein stability index (parent: IOH12374_19, c terminus: a fixed tail appended): 2.44

EPLPVERDPAAGAAPFRFVARPVR
protein stability index (parent: IOH11805_4, c terminus: a fixed tail appended): 2.21

YVPEKVKKAEKKLEENPYDLDAWS [CSTF3 WT]
protein stability index (parent: IOH12987_3, c terminus: a fixed tail appended): 2.14

NWKETLVFPPEVPISEKAKDLILR
protein stability index (parent: IOH11742_57, c terminus: a fixed tail appended): 3.08

HSLRAVSTDPPHHDHHDEFCLMP
protein stability index (parent: IOH13216_18, c terminus: native): 2.27
